Experiments:
Assay in all cases: Inhibition of amidolytic activity by naturally occurring protease inhibitors
Conditions in all cases: 10 minutes incubation at 25° C. in 50 mM Tris-HCl, 100 mM NaCl, pH 7.4
[1] = molecular target: T1, Soli C1 (Solenopsis invicta, UniProt Q7SIG2); type: biochemical
T1 construct: Fourth instar larvae were extracted in a 1:10 (weight/volume) ratio of 20 mM Tris-HCl pH 7.4; from tissue; host or cells: whole Solenopsis invicta 4th instar larvae (buffer extract, acetone precipitation, Q Sepharose peak III, Mono Q, Superdex 75)
Method: (§1) Enzyme Assay—Generally, the amidolytic activities of each proteinase were measured with the substrates MeOSuc-Ala-Ala-Pro-Val-pNA (SEQ ID NO:8) and N-Suc-Ala-Ala-Pro-Phe-pNA (SEQ ID NO:7) in 0.05 M Tris-HCl and 100 mM NaCl pH 7.4 (assay buffer). Release of the pNA group was assayed by monitoring the optical density of the test solution at […]. Enzyme inhibition assays by protein inhibitors were conducted in the same assay buffer using an inhibitor concentration ranging from 0.02-50 nM with a 10 minute preincubation time and with the final enzyme concentration being 1.0 nM. All kinetic studies with substrates and inhibitors were performed at the optimum pH of the individual proteinases, utilizing the following buffers: 150 mM NaCl, 50 mM Tris-HCl pH 8.0 (E1); 150 mM NaCl, 50 mM CHES pH 9.5 (E2 and C2); and 150 mM NaCl, 50 mM CAPS pH 10.0 (C1).

[2] = test system: Soli C2; type: biochemical, Solenopsis invicta
Method: as §1

[3] = test system: Soli E1; type: biochemical, Solenopsis invicta
Method: as §1

[4] = test system: Soli E2; type: biochemical, Solenopsis invicta
Method: as §1

T1 sequence (Q7SIG2 whole entry): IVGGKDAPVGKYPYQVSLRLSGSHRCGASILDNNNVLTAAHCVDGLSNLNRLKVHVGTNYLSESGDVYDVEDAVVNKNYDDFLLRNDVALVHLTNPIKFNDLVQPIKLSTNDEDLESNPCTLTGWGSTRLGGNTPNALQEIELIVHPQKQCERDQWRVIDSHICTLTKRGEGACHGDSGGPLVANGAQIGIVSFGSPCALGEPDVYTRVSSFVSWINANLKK

Row | Molecule | IC50 Soli C1 [1] | IC50 Soli C2 [2] | IC50 [1] [nM] | IC50 [2] [nM] | IC50 [3] [nM] | IC50 [4] [nM]
1 | Lima Bean Trypsin Inhibitor: lima bean trypsin inhibitor from Sigma (protein, not fully specified) SGHHEHSTDXPSXSSKPCCXHCACTKSIPPQCRCTDLRLDSCHSACKSCICTLSIPAQCVCXXIXDFCYEPCKSSHSDDDNNN | active | active | – | – | – | –
2 | Soy Bean Trypsin Inhibitor I-S: soybean trypsin inhibitor Type I-S from Sigma (protein) DFVLDNEGNPLENGGTYYILSDITAFGGIRAAPTGNERCPLTVVQSRNELDKGIGTIISSPYRIRFIAEGHPLSLKFDSFAVIMLCVGIPTEWSVVEDLPEGPAVKIGENKDAMDGWFRLERVSDDEFNNYKLVFCPQQAEDDKCGDIGISIDHDDGTRRLVVSKNKPLVVQFQKLDKESL | – | – | 37 | 1.41 | 4.22 | 5.58
3 | Eglin C: naturally occurring protease inhibitor obtained from Ciba Geigy (protein) TEFGSELKSFPEVVGKTVDQAREYFTLHYPQYDVYFLPEGSPVTLDLRYNRVRVFYNPGTNVVNHVPHVG | – | – | 1.24 | 0.442 | 3.93 | 1.89
